Data: US20220356228A1 (ICAHN SCHOOL OF MEDICINE AT MOUNT SINAI, published 2022)

What was measured:
[1] = target: T1, JCV major capsid protein VP1, wild type (John Cunningham virus (JCV), UniProt P03089 1-354); assay: ELISA, plates coated with pseudovirus, purified antibody
T1 construct: also called WT VP1; wild type VP1

JCV VP1 mutant L55F [2] = target: T2, JCV VP1 mutant L55F (John Cunningham virus (JCV), UniProt P03089 1-354); assay: as above
T2 construct: also called VP1 L55F; 55m VP1

JCV VP1 mutant S269F [3] = target: T3, JCV VP1 mutant S269F (John Cunningham virus (JCV), UniProt P03089 1-354); assay: as above
T3 construct: also called VP1 S269F; 269m VP1

[4] = target: T1, JCV major capsid protein VP1, wild type; assay: cell-based or functional assay
JCV VP1 mutant L55F [5] = target: T2, JCV VP1 mutant L55F; assay: cell-based or functional assay
JCV VP1 mutant S269F [6] = target: T3, JCV VP1 mutant S269F; assay: cell-based or functional assay

Binder | AB conc. (lowest concentration of antibody that gave a clear signal above background) [1] [ng/mL] | EC50 [1] [ng/mL] | binding result (JCV VP1 mutant L55F [2]) | AB conc. (lowest concentration of antibody that gave a clear signal above background) (JCV VP1 mutant S269F [3]) [ng/mL] | EC50 (JCV VP1 mutant S269F [3]) [ng/mL] | Neutralization of wild type JCV, EC50 [pM] [4] [pM] | Neutralization of JCV L55F: EC50 [pM] (JCV VP1 mutant L55F [5]) | Neutralization of JCV S269F: EC50 [pM] (JCV VP1 mutant S269F [6]) | AB conc. (lowest concentration of antibody that gave a clear signal above background) (JCV VP1 mutant L55F [2]) [ng/mL] | EC50 (JCV VP1 mutant L55F [2]) [ng/mL]
2A6 (antibody, V domains shown) VH: QVQLQQWGAGLLKPSETLSLTCAVYGGSFSGYYWSWIRQPPGKGLEWIGDINHGGSTNYNPSLKSRVIISVDTSKNQFSLKLSSVTAADTALYYCARGWGGQVAHWFDPWGQGTLGTVSS VL: DIVMTQSPDSLALSLGERATINCKSSQSVLFSSNNQNYLAWYQQKPGQPPKLLIYWASTRESGVPDRFSGSGSGTDFTLTVSSLQAEDVAVYFCQQYYSLPYTFGQGTKLEIK | < 200 | 1300 | no binding (tested: 2.5 ng/ml to 200 ng/ml) | < 22 | 147 | 2710 |  |  |  | 
4D11 (antibody, V domains shown) VH: QVQLVESGGGLVKPGGSLRLSCAGSGFTFSDHYMSWIRQAPGKGLEWVSYISTSGRTIYYADSVKGRFTISRDNAKNSLYLQMNSLRAEDTAVYYCASDYYDNSGWYYWGQGTLVTVSS VL: not shown | < 2.5 | 1.9 |  | < 2.5 | 6.9 | 124 | 245 | 12.7 | < 2.5 | 7.7
1G8 (antibody, V domains shown) VH: QVQLVESGGGLVKPGGSLRLSCAASGFTFSDFYMSWIRQAPGMGLEWVSYISFSGRAIYYADSVRGRFTISRDNAKNSLYLQMNSLSAEDTAVYYCASDYYDNVGWDYWGPGTLVTVSS VL: not shown | < 2.5 | 7 |  | < 2.5 | 7.7 | 144 | 511 | 22.7 | < 2.5 | 16.7
4E2 (antibody, V domains shown) VH: QVQLVESGGGLVKPGGSLRLSCAASGFTFSDFYMSWIRQAPGMGLEWVSYISFSGRAIYYADSVRGRFTISRDNAKNSLYLQMNSLSAEDTAVYYCASDYYDNVGWDYWGPGTLVTVSS VL: not shown | < 7.4 | 11.7 |  | < 2.5 | 7.1 | 160 |  | 30 | < 2.5 | 13.2
1H1 (antibody, V domains shown) VH: QVQLVESGGGLVKPGGSLRLSCAASGFTFSDFYMSWIRQAPGMGLEWVSYISFSGRAIYYADSVRGRFTISRDNAKNSLYLQMNSLSAEDTAVYYCASDYYDNVGWDYWGPGTLVTVSS VL: not shown | < 2.5 | 6.5 |  | < 2.5 | 7.5 | 182 |  | 55.3 | < 2.5 | 14.7
1F11 (antibody, V domains shown) VH: QVQLVESGGGLVKPGGSLRLSCAASGFTFSDLYMSWIRQAPGKGLEWVSYISTSGRTIYYADSVKGRFTISRDNAKNSLYLQMNSLRAEDTAVYYCAGDYYDNSGWDYWGRGTLVTVSS VL: not shown | < 7.4 | 9.4 |  | < 2.5 | 7.6 | 111 | 76 | 53 | < 7.4 | 14.3
1A3 (antibody, V domains shown) VH: QVQLVESGGGLVKPGGSLRLSCAASEITFSDYYMSWIRQAPGKGLEWISYISTSGRTIYFADSVKGRFTISRDNAKNSLYLQMNSLRADDTAVYYCASDFYDNSGWEYWGQGTLVTVSS VL: DVVMTQSPLSLSVTLGQPASISCRSSQSLVYSDGNTYLNWFQQRPGQSPRRLIYKVSDRDSGVPDRFSGSGSGTDFTLKISRAEAEDVGVYYCMQGTHWPRTFGQGTKVEIK | < 2.5 | 7.1 |  | < 2.5 | 8 | 301 | 6600 | 37.3 | < 2.5 | 14.3
1E12 (antibody, V domains shown) VH: QVQLVESGGGLVKPGGSLRLSCTASGFTFSDHYMSWIRQAPGKGLEWVSYISTGGRTIYYADSVKGRFTISRDNAKNSLYLQMNSLRAEDTAVYYCASDYYDNVGWDYWGQGTLVTVSS VL: DVVLTQSPLSLPVTLGQPASISCRSSQSLIYSDGNTYLNWFQQRPGQSPRRLIYKVSDRDSGVPDRFSGSGSGTDFTLKISRVEAEDVGVYYCMQGTHWPRTFGQGTKVEIK | < 7.4 | 8.4 |  | < 7.4 | 8.5 | 16 | 56.7 | 105 | < 2.5 | 7.7
1E8 (antibody, V domains shown) VH: QVQLVESGGGLVKPGGSLRLSCAASGFTFSDHYMSWIRQAPGKGLEWVSYISTSGSTIYYADSVKGRFTISRDNAKNSLYLQMNSLRAEDTAVYYCASDYYDNSGWNYWGQGTLVTVSS VL: DVVMTQSPLSLPVTLGQPASISCRSSQSLVYSDGNTYLNWFQQRPGQSPRRLIYKVSDRDSGVPDRFSGSGSGTDFTLRISRVEAEDVGVYYCMQGSHWPRTFGQGTKVEIK | < 2.5 | 8 |  | < 2.5 | 22 | 127 | 3380 | 55.3 | < 22 | 46.5
2A11 (antibody, V domains shown) VH: QVQLVESGGGLVKPGGSLRLSCAASGFTFSDHYMSWIRQAPGKGLEWVSYISTSGRTIYYVDSVKGRFTISRDNAKNSLYLQMNSLRAEDMAVYYCASDYYDNVGWNYWGQGALVTVSS VL: DVVLTQSPLSLPVTLGQPASISCRSSQSLVYSDGNTYLNWFQQRPGQSPRRLIYKVSDRDFGVPDRFSGSGSGTDFTLKISRVEAEDVGIYYCMQGTHWPRTFGQGTKVEIK | < 7.4 | 7.4 |  | < 2.5 | 6.8 | 146 | 45.5 | 250 | < 7.4 | 13.6
8A7 (antibody, V domains shown) VH: QVQLQESGPGLVKPSETLSLTCTVSGGSISSNYWNWIRQPPGKGLEWIGYIYYSGSTNYNPSLKSRVTISVDTSKNQFSLKLSSVTAADTAVYYCARRGFEQQLSYYYYYGLDVWGQGTTVTVSS VL: not shown |  | 8.5 |  |  |  |  |  |  |  | 
1A7 (antibody, V domains shown) VH: QVQLVQSGAEVKKPGASVKVSCKASGYTFTFYDINWVRQATGQGLEWMGWMNPNSGNTGYAQNFQGRVTMTRNTSINTAYLELSSLRSEDTAVYYCARKIWVGHTTFDRWGQGTLVTVSS VL: AIQMTQSPSSLSASVGDRVTITCRASQSISGYLNWYQQKPGKAPNLLIYAASNLQSGVPSRFSGSGSGTDFTLTISSLQREDFAPYYCQQTYNIPFTFGGGTKVEIK | < 22 | 24.7 | no binding (tested: 2.5 ng/ml to 200 ng/ml) | < 2.5 | 7.4 | 180 |  | 7 |  | 
3D2 (antibody, V domains shown) VH: QVQLQQWGAGLLKPSETLSLTCAVFGGSFSSYYWSWIRHPPGKGLEWIGDINHSGSTNYNPSLKSRVTLSVDTSKNQFSLKVTSVTAADTAVYYCARWGIAADYGMDVWGQGTTVTVSS VL: EIVLTQSPGTLSLSPGERATLSCRASQSVSSSYLAWYQQKPGQAPRLLIYGASSRATGIPDRFSDSGSGTDFTLTISRLEPEDFALYYCQQYGTSPWTFGQGTKVEIK | < 67 | 393 | no binding (tested: 2.5 ng/ml to 200 ng/ml) | < 22 | 121 | 2250 |  | 733 |  | 
1H10 (antibody, V domains shown) VH: EVQLLESGGGLVQPGGSLRLSCAASGFTLSTYAMSWVRQAPGKGLEWVSAISGTGLSTYYADSLKGRFTISRDISKNTLYLQMSSLKAEDTAVYYCAKGLELFYFYYGMDVWGQGTTVTVSS VL: EIVLTQSPGTLSLSPGERATLSCRASQSVSSTYLAWYQQKPGQAPRLLIYGTSSRATGIPDRFSGSGSGTDFTLTISRLEPEDLAVYYCQQYGRSLIFGQGTRLEIK | < 22 | 19.3 |  | < 7.4 | 18.5 | 155 |  | 20.9 |  | 
